Experimental data from PMC7954794, “Protein context shapes the specificity of SH3 domain-mediated interactions in vivo” (Nature Communications, 2021).

Tested on: ABP1
Experiment: DHFR-PCA on solid medium, bait ABP1 (Fig. 1B)
Type: cell-based, Saccharomyces cerevisiae
Details: bait ABP1, label = prey; for medrep (log2 median colony size normalized to plate background, PCA score): 2-4 replicates; for Ratio (SH3-deleted/WT medrep): only significant differences showed, PPIs completely lost have a ratio of 0.1 and the gained PPIs 2.5
Description: Supplement 41467_2021_21873_MOESM8_ESM.xlsx, sheet "Fig1B" | column: medsize; medrep; Ratio; Score

Molecule | medrep (log2 median colony size normalized to plate background, PCA score) | Ratio (SH3-deleted/WT medrep)
YNL287W (protein, UniProt P32074 1-935, looked up) Coatomer subunit gamma: MSAHTYKKFENSTSGDLPDKMTIYQDCMNTFNESPVNSKRCRLLISRLLRLLAQGETFPQNEATALFFSISKLFQHQNDPLRQAVYLAIKELSGISEDVLMATSSIMKDVQNGSDLIKPDAIRSLTYVLDESTAFSAERLLKSAVVSRHPSISSAALCTSYHLLPISEVTIRRFTNETQEAVLDLKQFPNQHGNSEYYPNSTYISQYHALGLLYQLKKTDKMALLKLVRHFSENNSMKNQLAKVELVKIVNDLIYRDPQLFSQFRPLLSDWLSNKFESVQLETAKLITSFATRNSRLVAPELYAAAISALQSLLTVPRVSSRFAALRILNRISMVSPEKIVVCNPELESLINDSNRNISTYAITTLLKTGTSKNISSLISTITNFIHDVSDDFKIIIIDAVRTLSLNFPQEWKSILNFLIDVLKNSEGGFKFKNSIVEALIDIVSFVPQSKELALENLCDFIEDCEFNEILVRILHLLGKEGPSAPNPSLYVRHIYNRVVLENSIIRSAAVVALSKFALTKNDPTLYESIISLLKRIANDKDDEVRDRATIALEFIDSARNKDDVIAQNLIESKYFYDIPSLESKLSSYISSNTDSFATAFDVNQVRKFTEDEMKAINLKRKQEQIFNQKSETTLDTTPEAESVPEKRADANSFAGPNLDDHQEDLLATKYADELLSIEQIKPFGQLVNSSRAISLTEPEAEFVVRGVKHLFKDNVVLQFNITNTLTDIALDNVSVVCTPEISDEAELEELFTLQVDRLLPSEEAACYVAFKKLDEIVMEGFLNNLTFTTKEINPDTNEPFDGDEGFQDEYEIDSIFLNAGDYVKSSFTGNFSATFDELPCEEVAVFNIQEDLSIQEVVDKIILNSSCLPVESTQFAPSDSNSHTLKLFGKSALTGSKVALQIKMIKSSKGLALKVHGKGEDSLLCSDLVNGLMQ | 2.55 | 1.797
YLR258W (protein, UniProt P27472 1-705, looked up) Glycogen [starch] synthase …: MSRDLQNHLLFETATEVANRVGGIYSVLKSKAPITVAQYKDHYHLIGPLNKATYQNEVDILDWKKPEAFSDEMRPVQHALQTMESRGVHFVYGRWLIEGAPKVILFDLDSVRGYSNEWKGDLWSLVGIPSPENDFETNDAILLGYTVAWFLGEVAHLDSQHAIVAHFHEWLAGVALPLCRKRRIDVVTIFTTHATLLGRYLCASGSFDFYNCLESVDVDHEAGRFGIYHRYCIERAAAHSADVFTTVSQITAFEAEHLLKRKPDGILPNGLNVIKFQAFHEFQNLHALKKEKINDFVRGHFHGCFDFDLDNTLYFFIAGRYEYKNKGADMFIEALARLNYRLKVSGSKKTVVAFIVMPAKNNSFTVEALKGQAEVRALENTVHEVTTSIGKRIFDHAIRYPHNGLTTELPTDLGELLKSSDKVMLKRRILALRRPEGQLPPIVTHNMVDDANDLILNKIRQVQLFNSPSDRVKMIFHPEFLNANNPILGLDYDEFVRGCHLGVFPSYYEPWGYTPAECTVMGVPSITTNVSGFGAYMEDLIETNQAKDYGIYIVDRRFKAPDESVEQLVDYMEEFVKKTRRQRINQRNRTERLSDLLDWKRMGLEYVKARQLALRRGYPDQFRELVGEELNDSNMDALAGGKKLKVARPLSVPGSPRDLRSNSTVYMTPGDLGTLQEVNNADDYFSLGVNPAADDDDDGPYADDS | 1.989 | 2.5
YJL151C (protein, UniProt P14359 1-133, looked up) Protein SNA3: MDRDHINDHDHRMSYSINKDDLLLMVLAVFIPPVAVWKRKGMFNRDTLLNLLLFLLLFFPAIIHACYVVYETSSERSYDLSRRHATAPAVDRDLEAHPAEESQAQPPAYDEDDEAGADVPLMDNKQQLSSGRT | 1.425 | 2.5
YDL160C (protein, UniProt P39517 1-506, looked up) ATP-dependent RNA helicase …: MGSINNNFNTNNNSNTDLDRDWKTALNIPKKDTRPQTDDVLNTKGNTFEDFYLKRELLMGIFEAGFEKPSPIQEEAIPVAITGRDILARAKNGTGKTAAFVIPTLEKVKPKLNKIQALIMVPTRELALQTSQVVRTLGKHCGISCMVTTGGTNLRDDILRLNETVHILVGTPGRVLDLASRKVADLSDCSLFIMDEADKMLSRDFKTIIEQILSFLPPTHQSLLFSATFPLTVKEFMVKHLHKPYEINLMEELTLKGITQYYAFVEERQKLHCLNTLFSKLQINQAIIFCNSTNRVELLAKKITDLGYSCYYSHARMKQQERNKVFHEFRQGKVRTLVCSDLLTRGIDIQAVNVVINFDFPKTAETYLHRIGRSGRFGHLGLAINLINWNDRFNLYKIEQELGTEIAAIPATIDKSLYVAENDETVPVPFPIEQQSYHQQAIPQQQLPSQQQFAIPPQQHHPQFMVPPSHQQQQAYPPPQMPSQQGYPPQQEHFMAMPPGQSQPQY | 1.807 | 2.5
YNR007C (protein, UniProt P40344 1-310, looked up) Autophagy-related protein 3: MIRSTLSSWREYLTPITHKSTFLTTGQITPEEFVQAGDYLCHMFPTWKWNEESSDISYRDFLPKNKQFLIIRKVPCDKRAEQCVEVEGPDVIMKGFAEDGDEDDVLEYIGSETEHVQSTPAGGTKDSSIDDIDELIQDMEIKEEDENDDTEEFNAKGGLAKDMAQERYYDLYIAYSTSYRVPKMYIVGFNSNGSPLSPEQMFEDISADYRTKTATIEKLPFYKNSVLSVSIHPCKHANVMKILLDKVRVVRQRRRKELQEEQELDGVGDWEDLQDDIDDSLRVDQYLIVFLKFITSVTPSIQHDYTMEGW | 1.566 | 2.5
YAR042W (protein, UniProt P35845 1-1188, looked up) Oxysterol-binding protein …: MEQPDLSSVAISKPLLKLKLLDALRQGSFPNLQDLLKKQFQPLDDPNVQQVLHLMLHYAVQVAPMAVIKEIVHHWVSTTNTTFLNIHLDLNERDSNGNTPLHIAAYQSRGDIVAFLLDQPTINDCVLNNSHLQAIEMCKNLNIAQMMQVKRSTYVAETAQEFRTAFNNRDFGHLESILSSPRNAELLDINGMDPETGDTVLHEFVKKRDVIMCRWLLEHGADPFKRDRKGKLPIELVRKVNENDTATNTKIAIDIELKKLLERATREQSVIDVTNNNLHEAPTYKGYLKKWTNFAQGYKLRWFILSSDGKLSYYIDQADTKNACRGSLNMSSCSLHLDSSEKLKFEIIGGNNGVIRWHLKGNHPIETNRWVWAIQGAIRYAKDREILLHNGPYSPSLALSHGLSSKVSNKENLHATSKRLTKSPHLSKSTLTQNDHDNDDDSTNNNNNKSNNDYDDNNNNNNNDDDDYDDDDESRPLIEPLPLISSRSQSLSEITPGPHSRKSTVSSTRAADIPSDDEGYSEDDSDDDGNSSYTMENGGENDGDEDLNAIYGPYIQKLHMLQRSISIELASLNELLQDKQQHDEYWNTVNTSIETVSEFFDKLNRLTSQREKRMIAQMTKQRDVNNVWIQSVKDLEMELVDKDEKLVALDKERKNLKKMLQKKLNNQPQVETEANEESDDANSMIKGSQESTNTLEEIVKFIEATKESDEDSDADEFFDAEEAASDKKANDSEDLTTNKETPANAKPQEEAPEDESLIVISSPQVEKKNQLLKEGSFVGYEDPVRTKLALDEDNRPKIGLWSVLKSMVGQDLTKLTLPVSFNEPTSLLQRVSEDIEYSHILDQAATFEDSSLRMLYVAAFTASMYASTTNRVSKPFNPLLGETFEYARTDGQYRFFTEQVSHHPPISATWTESPKWDFYGECNVDSSFNGRTFAVQHLGLWYITIRPDHNISVPEETYSWKKPNNTVIGILMGKPQVDNSGDVKVTNHTTGDYCMLHYKAHGWTSAGAYEVRGEVFNKDDKKLWVLGGHWNDSIYGKKVTARGGELTLDRIKTANSATGGPKLDGSKFLIWKANERPSVPFNLTSFALTLNALPPHLIPYLAPTDSRLRPDQRAMENGEYDKAAAEKHRVEVKQRAAKKEREQKGEEYRPKWFVQEEHPVTKSLYWKFNGEYWNKRKNHDFKDCADIF | 1.62 | 2.5
YGR178C (protein, UniProt P53297 1-722, looked up) PAB1-binding protein 1: MKGNFRKRDSSTNSRKGGNSDSNYTNGGVPNQNNSSMFYENPEITRNFDDRQDYLLANSIGSDVTVTVTSGVKYTGLLVSCNLESTNGIDVVLRFPRVADSGVSDSVDDLAKTLGETLLIHGEDVAELELKNIDLSLDEKWENSKAQETTPARTNIEKERVNGESNEVTKFRTDVDISGSGREIKERKLEKWTPEEGAEHFDINKGKALEDDSASWDQFAVNEKKFGVKSTFDEHLYTTKINKDDPNYSKRLQEAERIAKEIESQGTSGNIHIAEDRGIIIDDSGLDEEDLYSGVDRRGDELLAALKSNSKPNSNKGNRYVPPTLRQQPHHMDPAIISSSNSNKNENAVSTDTSTPAAAGAPEGKPPQKTSKNKKSLSSKEAQIEELKKFSEKFKVPYDIPKDMLEVLKRSSSTLKSNSSLPPKPISKTPSAKTVSPTTQISAGKSESRRSGSNISQGQSSTGHTTRSSTSLRRRNHGSFFGAKNPHTNDAKRVLFGKSFNMFIKSKEAHDEKKKGDDASENMEPFFIEKPYFTAPTWLNTIEESYKTFFPDEDTAIQEAQTRFQQRQLNSMGNAVPGMNPAMGMNMGGMMGFPMGGPSASPNPMMNGFAAGSMGMYMPFQPQPMFYHPSMPQMMPVMGSNGAEEGGGNISPHVPAGFMAAGPGAPMGAFGYPGGIPFQGMMGSGPSGMPANGSAMHSHGHSRNYHQTSHHGHHNSSTSGHK | 1.414 | 2.5
YMR080C (protein, UniProt P30771 1-971, looked up) ATP-dependent helicase NAM7: MVGSGSHTPYDISNSPSDVNVQPATQLNSTLVEDDDVDNQLFEEAQVTETGFRSPSASDNSCAYCGIDSAKCVIKCNSCKKWFCNTKNGTSSSHIVNHLVLSHHNVVSLHPDSDLGDTVLECYNCGRKNVFLLGFVSAKSEAVVVLLCRIPCAQTKNANWDTDQWQPLIEDRQLLSWVAEQPTEEEKLKARLITPSQISKLEAKWRSNKDATINDIDAPEEQEAIPPLLLRYQDAYEYQRSYGPLIKLEADYDKQLKESQALEHISVSWSLALNNRHLASFTLSTFESNELKVAIGDEMILWYSGMQHPDWEGRGYIVRLPNSFQDTFTLELKPSKTPPPTHLTTGFTAEFIWKGTSYDRMQDALKKFAIDKKSISGYLYYKILGHQVVDISFDVPLPKEFSIPNFAQLNSSQSNAVSHVLQRPLSLIQGPPGTGKTVTSATIVYHLSKIHKDRILVCAPSNVAVDHLAAKLRDLGLKVVRLTAKSREDVESSVSNLALHNLVGRGAKGELKNLLKLKDEVGELSASDTKRFVKLVRKTEAEILNKADVVCCTCVGAGDKRLDTKFRTVLIDESTQASEPECLIPIVKGAKQVILVGDHQQLGPVILERKAADAGLKQSLFERLISLGHVPIRLEVQYRMNPYLSEFPSNMFYEGSLQNGVTIEQRTVPNSKFPWPIRGIPMMFWANYGREEISANGTSFLNRIEAMNCERIITKLFRDGVKPEQIGVITPYEGQRAYILQYMQMNGSLDKDLYIKVEVASVDAFQGREKDYIILSCVRANEQQAIGFLRDPRRLNVGLTRAKYGLVILGNPRSLARNTLWNHLLIHFREKGCLVEGTLDNLQLCTVQLVRPQPRKTERPMNAQFNVESEMGDFPKFQDFDAQSMVSFSGQIGDFGNAFVDNTELSSYINNEYWNFENFKSAFSQKQNRNEIDDRNLYQEEASHLNSNFARELQREEQKHELSKDFSNLGI | 1.542 | 2.5
